Values belong to the binder of their own block, whether it stands above or below them. Where no end group is shown, it is not given here. [ ]: non-standard residue; d: D form. The star is where a group is joined. FITC = O=C1OC2(c3ccc(O)cc3Oc3cc(O)ccc32)c2ccc(NC(=S)*)cc21; pS = N[C@@H](COP(=O)(O)O)C(=O)O
Columns and labels:
[1] = molecular target: SFN 14-3-3 (14-3-3 protein sigma) (human) (UniProt P31947); assay: fluorescence polarisation; competition: unlabelled peptide in serial dilution against the protein domain (master mix at four times the KD) with its FITC-labelled probe peptide; 50 mM KPO4 or NaPO4 pH 7.5; Ki calculated from IC50
[2] = molecular target: TLN1 PTB (talin-1, phosphotyrosine binding-like domain) (human) (UniProt Q9Y490); assay: fluorescence polarisation; direct saturation binding: protein in serial dilution, FITC-labelled probe peptide fixed (master mix 10 nM probe, 2 mM DTT); 50 mM KPO4 or NaPO4 pH 7.5; quadratic fit
[3] = molecular target: KPNB1 HEAT (importin subunit beta-1, HEAT repeat) (human) (UniProt Q14974); assay: as above
[4] = molecular target: KPNA4 ARM (importin subunit alpha-3, armadillo repeat domain) (human) (UniProt O00629); assay: as above
[5] = molecular target: KEAP1 Kelch domain, MBP-tagged (human) (UniProt Q14145); assay: fluorescence polarisation; competition: unlabelled peptide in serial dilution against FITC-labelled probe peptide and protein (master mix with protein at four times the KD), 50 mM KPO4 pH 7.5; sigmoidal dose-response fit, KI
[6] = molecular target: KEAP1 Kelch (kelch-like ECH-associated protein 1, Kelch domain) (human) (UniProt Q14145); assay: fluorescence polarisation; competition: unlabelled peptide in serial dilution against the protein domain (master mix at four times the KD) with its FITC-labelled probe peptide; 50 mM KPO4 or NaPO4 pH 7.5; Ki calculated from IC50
[7] = molecular target: MDM2 SWIB, cleaved from the His‐GST tag, for affinity measurements (human); assay: fluorescence polarisation; competition: unlabelled peptide in serial dilution displaces a FITC-labelled probe peptide from the bait domain (master mix with protein at four times the KD of the probe, 10 nM probe, 2 mM DTT); 50 mM KPO4 or NaPO4 pH 7.5; triplicates; probe for KEAP1 Kelch: FITC-NFE2L1 228-243, other probes in Dataset EV6
[8] = molecular target: SFN 14-3-3 (14-3-3 protein sigma) (human) (UniProt P31947); assay: fluorescence polarisation; direct saturation binding: protein in serial dilution, FITC-labelled probe peptide fixed (master mix 10 nM probe, 2 mM DTT); 50 mM KPO4 or NaPO4 pH 7.5; quadratic fit
[9] = molecular target: KPNA4 ARM, MBP‐tagged domain, for affinity measurements (human); assay: fluorescence polarisation; competition on MBP-tagged KPNA4 ARM: unlabelled peptide in serial dilution displaces FITC-Myc 320-328 (probe for the major pocket) or FITC-NCOR2 1307-1322 (probe for the minor pocket); 50 mM KPO4 pH 7.5; triplicates

Binder: Ac-NEPTTPSWLADIPPWVP-NH2 [MAP1A 1831-1847 peptide]
IC50 [1]: 1970 µM

Binder: {FITC}-FPTDERSWVYSPLHYS-NH2 [FITC-PIP5K1C 640-655 probe peptide]
Kd [2]: 0.15 µM

Binder: {FITC}-VATFVFGQSS-NH2 [FITC-NUP153 1223-1232 probe peptide]
Kd [3]: 106 µM

Binder: {FITC}-PAAKRVKLD [FITC-Myc 320-328 probe peptide]
Kd [4]: 0.03 µM

Binder: Ac-PPLPPPPLPPAPSLPY-NH2 [ATF5 128-143 peptide]
Ki [5]: 1470 µM
IC50 [6]: 4430 µM
Ki [6]: 1470 µM

Binder: {FITC}-QRST[pS]TPNVH-NH2 [FITC-RAF phosphopeptide probe]
Kd [8]: 524 µM

Binder: {FITC}-PKRTYDMMEGRVGRAI [FITC-NCOR2 1307-1322 probe peptide]
Kd [4]: 0.23 µM

Second part, the binder after the results:

Ki [7]: 0.17 µM
Binder: THFAELWGHLDHTMFF [RNF115_(69–84) peptide, synthetic]

Ki [5]: 162 µM
IC50 [6]: 490 µM
Ki [6]: 162 µM
Binder: Ac-YMQHLQEQQQQQMHLQ-NH2 [TREF1 332-347 peptide]

fold loss of affinity against the wild-type peptide [9]: 10 fold
Binder: KCRRQRQDQTLELVGL [NKX2‐5_(192–207) K194R mutant peptide, synthetic, P52952 192-207]

Source: paper PMC8769072, “Proteome‐scale mapping of binding sites in the unstructured regions of the human proteome” (Molecular Systems Biology, 2022)
